Source: the supplement of paper PMC11908140

B1: library; numbered along this chain (parent)
chain: MRKPRAAVGSGHRKQAASQEGRQKHAKNNSQAKPSACDGLARQPEEVVLQASVSSYHLFRDVAEVTAFRGSLLSWYDQEKRDLPWRRRAEDEMDLDRRAYAVWVSEVMLQQTQVATVINYYTGWMQKWPTLQDLASASLEEVNQLWAGLGYYSRGRRLQEGARKVVEELGGHMPRTAETLQQLLPGVGRYTAGAIASIAFGQATGVVDGNVARVLCRVRAIGADPSSTLVSQQLWGLAQQLVDPARPGDFNQAAMELGATVCTPQRPLCSQCPVESLCRARQRVEQEQLLASGSLSGSPDVEECAPNTGQCHLCLPPSEPWDQTLGVVNFPRKASRKPPREESSATCVLEQPGALGAQILLVQRPNSGLLAGLWEFPSVTWEPSEQLQRKALLQELQRWAGPLPATHLRHLGEVVHTFSHIKLTYQVYGLALEGQTPVTTVPPGARWLTQEEFHTAAVSTAMKKVFRVYQGQQPGTCMGSKRSQVSSPCSRKKPRMGQQVLDNFFRSHISTDAHSLNSAAQ

Variants of: B1
Assay: 8OG:A repair function score (normalized; synonymous = 0, nonsense = -1) (normalized log-likelihood score); higher = more repair activity (WT-like)
Conditions: with 8OG:A DNA repair reporter (GFP) in HEK-293 MUTYH KO cells
Experimental: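 Saturation mutagenesis (NNN codon scan) of the MUTYH cDNA (521-aa nuclear isoform NM_001048174.1 / NP_001041639), stably expressed under doxycycline induction in HEK-293 MUTYH knockout cells. Cells were co-transfected with an 8OG:A-bearing GFP repair reporter plus mCherry and sorted 72 h later into GFP+ and GFP− bins, three replicates per tile. The Rosace log2 enrichment (GFP+ vs GFP−) was converted per tile to a normalized function score with synonymous variants centered at 0 and nonsense variants (codons 1-471) at -1; low-abundance variants were removed.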

Variant	8OG:A repair function score
C489F	-0.0128
G39N	0.241
R87E	-0.0603
L501I	-0.0198
Q126T	0.049
D512E	-0.0165
V362R	-0.236
A115K	-0.0104
L40E	0.0138
Q233L	0.227
W103T	-0.833
V218Y	-0.62
G171V	-0.443
G236H	-0.00754
F504D	0.0276
K422P	-1.09
N210K	-1.04
A203F	-0.255
R156P	-0.341
R163C	-0.00395
Q271P	-0.311
P264A	-0.0364
S197Y	-0.898
G429I	-0.0856

Variant	8OG:A repair function score
Y428T	-1.1
G293N	-0.03
I195M	-0.23
E342C	0.0508
L184E	-1.09
S507D	-0.0424
G123E	-0.000943
A212L	-0.264
S367F	-0.13
L432P	-0.514
G297P	-0.0639
V458K	-0.57
A220K	-0.891
G353A	0.00991
G170V	-0.31
P264H	-0.113
T346K	-0.886
S71K	-0.0254
S510M	-0.0272
T308A	0.0246
L268F	0.00448
R482F	0.0283
K492S	-0.0044
D224H	-0.924

Variant	8OG:A repair function score
G429T	-0.219
Q288L	-0.0159
C311L	-0.479
Y56S	-0.0461
Y100V	-1.41
A245V	0.000414
R266T	-0.142
V284K	-0.0279
G155L	-0.574
L277M	0.00781
A520N	0.0153
T439F	-0.0571
Q473C	6.68e-05
V206R	-1.01
P129D	-0.0868
V500E	0.0219
T424P	-0.685
S344W	-0.0913
V48E	-0.122
V104W	-0.707
G188R	-0.844
G293M	-0.0432
L180N	-1.02
G39K	0.121

Variant	8OG:A repair function score
K481E	-0.00514
R482S	0.0216
P174T	-0.922
L277R	-0.152
V218T	-0.283
T417C	-0.188
G471N	0.00878
N329M	-0.264
P488M	-0.0122
T130F	-0.197
Q521F	-0.0187
Q144E	-0.0907
L241Q	-0.948
H416P	-0.576
C272Y	-0.982
L387S	0.154
V468D	-0.647
L184T	-0.62
S335G	-0.02
L131C	-0.139
A245F	0.00779
S296F	-0.00655
G188E	-0.866
R409N	-0.0513

Variant	8OG:A repair function score
S292F	-0.0271
T511M	-0.0046
Q126F	0.0114
G148K	-0.475
L95W	-0.127
E106F	-0.995
V114S	-0.184
P494Y	-0.00726
A177R	-0.127
A291R	-0.0282
Q110C	-0.75
T130G	-0.0108
G356N	-0.277
S384Q	-0.345
H508L	-0.0429
A445K	-0.464
T179K	0.0976
G161N	-0.325
A456M	-0.328
L448N	-0.42
T439G	0.107
S71A	-0.0236
K164W	-0.0721
A445P	-0.65

Variant	8OG:A repair function score
E160K	-0.0797
I198Q	-0.466
G497E	0.00606
S227H	-0.197
P225M	-0.186
D61R	-0.037
F330M	-0.174
P331N	-0.316
R157F	-0.0928
Y56I	-0.000994
A400C	-0.215
G412R	-0.598
E90I	-0.0086
G201Y	-0.227
R506N	0.00916
T179C	-0.0042
L95C	-0.0111
S483M	-0.00708
S486V	-0.00598
F250T	-0.65
R60F	-0.0889
T308N	0.0456
S197Q	-1.14
T436F	-0.0267

Variant	8OG:A repair function score
A135V	-0.0536
S344L	0.00107
R88I	0.00568
F376S	-0.657
D133K	-0.175
T263G	-0.115
N503C	0.00549
L234H	-0.751
Q271E	-0.00693
M173A	-0.537
L349M	0.0308
Q232A	-0.179
E342W	-0.279
P488T	0.00629
E168M	-0.0593
N503I	-0.0307
V242H	-0.806
Y151T	-0.587
Q43F	0.0374
M496L	-0.0124
Q472P	0.0113
G497V	-0.00253
Q159G	-0.279
R87W	-0.0564

Variant	8OG:A repair function score
S480D	0.0166
R189A	-0.136
V414F	-0.187
A99K	-1.18
T439H	0.301
Q181V	-0.114
V230N	-0.687
R88H	0.0048
S55D	0.00222
R97H	-0.211
Y428W	0.228
L408R	-0.839
W374P	-1.01
T439Q	-0.173
V214E	-0.927
F504L	0.0067
G201I	-0.543
R446P	-1.13
S419V	-0.259
R340W	-0.144
D243P	-0.554
L349W	-0.668
W374N	-0.645
Q50E	0.0122

Variant	8OG:A repair function score
T511F	-0.00618
G186F	-1.04
L290N	0.00556
R156I	-0.152
E382P	0.149
Q43N	-0.0614
E302Q	-0.207
E342K	0.0199
K164L	0.0383
L423V	-0.132
Q323A	-0.0752
H57E	-0.74
P338A	-0.066
G444S	-0.291
L95K	-0.0064
V206M	-0.563
Y151W	-0.534
G205F	-0.891
Q472Y	0.00647
L277I	-0.036
C314R	-0.482
T66P	-0.115
L360G	-0.95
P377Q	-0.969

Variant	8OG:A repair function score
Y469N	-0.738
T324I	-0.0894
S487Q	-0.00246
R97I	0.00215
E64A	-0.0113
Q240T	-0.972
S343V	0.0196
S490K	0.00805
V142I	-0.297
R86V	-1.33
V211R	-1.02
E256S	-0.507
A41N	0.0813
Q282H	-0.0165
A254N	-0.427
P267V	-0.195
C269T	-1.06
R336H	-0.173
A51P	0.142
T176G	-0.216
V415F	-0.391
Q78E	0.00685
V211S	-0.531
P442K	-0.261

Variant	8OG:A repair function score
F453N	-1.25
A371P	-0.216
L237E	-0.684
E413T	0.369
T308G	-0.0427
A445Q	-0.575
E285N	-0.0168
Q50C	0.0151
E167V	-0.0209
V117E	-0.683
N366I	-0.169
H416G	-0.0614
E375R	-0.462
Y190T	-0.419
E285V	0.00347
V458Y	-0.724
P352K	0.00765
Q126G	-0.0912
G39F	0.045
S510N	-0.0738
P402Y	-0.122
I221W	-0.622
S55R	-0.0153
E79Q	-0.0185

Variant	8OG:A repair function score
K481H	-0.0426
E375P	-0.897
G368C	-0.369
L72K	-1.1
N503K	-0.0135
Q484M	0.0126
P404V	-0.000894
C489E	0.0219
T130K	-0.0846
L432E	-0.542
G356S	-0.118
S136C	-0.0713
Q286A	-0.00891
A115Q	-0.0206
K164E	-0.382
S343D	0.0576
K3A	0.108
F59S	-0.561
E64L	-0.0405
L325A	-0.0759
N119Q	-0.00304
Q521D	-0.0822
F330R	-0.958
A519V	-0.0127

Variant	8OG:A repair function score
C311N	-0.628
V274M	-0.0354
P225R	-0.147
A137C	-0.261
S335M	-0.0531
G293L	-0.0631
S318H	-0.0534
A357L	-0.0718
C269F	-1.16
P377W	-1.42
G401C	-0.381
L393F	-0.244
S378R	-0.122
N210D	-1.03
T116N	-0.15
G148T	-0.549
C489I	-0.0718
S227A	-0.0215
G193E	-0.722
Q182P	-0.18
A520G	0.00375
T176V	-0.285
A196D	-0.616
P44C	-0.247

Variant	8OG:A repair function score
G356F	-0.253
S270D	-0.0528
Y428V	-1.03
F59I	-0.137
T449P	-0.0904
L392K	-1.03
Q388H	-0.356
P299M	-0.0166
P174H	-0.972
E141F	-0.392
A63S	0.00279
Y469V	-0.153
V274Y	-0.549
G148S	-0.286
Y190L	-0.851
R217K	-1.03
D96T	-1.12
Q181E	0.0231
T260Q	-0.0253
P437S	-0.0348
A253P	-1.02
Q498A	0.011
